Source: the supplement of paper PMC6755084

The sequences below were run on F1*sub RNA substrate (template-directed ligation) (assay: fraction ligated after 30 min (ligated reads / total reads); higher = more ligase activity; sequences stand for … in GAGACCGCAACTGAAAAGTTGT…AGTTCTGCACGTAGAAGCAAAAGGC). Conditions: 42 °C.
Outline: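 Oligo-pool templates of ligase ribozyme variants were PCR-amplified, T7-transcribed and gel-purified. Ligated and unligated bands were gel-separated, reverse transcribed with barcoded primers, and MiSeq-sequenced; core bases were filtered at quality ≥20. Fraction ligated per variant was ligated reads over total reads.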
Work on TATACTTGTCGTAGACACTTTGGAGGGTTGA [3d879] yielded a fraction ligated of 0.0209. In the case of “TATCCTTGTCGTAAACACTTTGATGGGTTGA [3d1059]”, the fraction ligated is reported as 0.758. Work on “TATCACTTGTCGTAGACACTTTATGGGTTGA [3d2042]” yielded a fraction ligated of 0.128. “TATCACGTCGTAAGACACTTTGGATGGGTTG [3d1310]” was tested, and the fraction ligated was 0.782. For “TATCACTTGTCGTAGCATTTGGATGGGTTGA [3d2005]”, the fraction ligated was 0.815. With “TATCCTTGTCGTAAGAATTTGGATGGGTTGA [3d1075]” the fraction ligated was 0.79. Work on ATCACTTTGTAAGACACTTTGGATGGGTTGA [3d124] yielded a fraction ligated of 0.787. Sequence TATACTTTCGTAAGACACTTTGGATGGGTTA [3d810] has a fraction ligated of 0.00702. With TATCCTGTCGTAAGACACTTTGGAGGGTTGA [3d964] the fraction ligated was 0.0143. “TATCACTTGTGTAGACACTTTGATGGGTTGA [3d1738]” gave a fraction ligated of 0.824. TATACTTGCGTAGACACTTTGGATGGGTTGA [3d815] showed a fraction ligated of 0.435. “TATCACTTGTCGTAAGACACTTGGAGGGTTA [3d2249]” gave a fraction ligated of 0.0115. Sequence “TATCACTTGTGAAGAACTTTGGATGGGTTGA [3d1721]” has a fraction ligated of 0.851. Sequence “TATCACTTGTCGTAAGACCTTTGGTGGGTTA [3d2198]” has a fraction ligated of 0.0357. Sequence TAATTGTCGTAAGACACTTTGGATGGGTTGA [3d508] has a fraction ligated of 0.0528. With “TATCCTTGTCGTAAGCACTTTGGTGGGTTGA [3d1070]” the fraction ligated was 0.0868. In the case of “TATCACTTGTCTAGAACTTTGGATGGGTTGA [3d1826]”, the fraction ligated is reported as 0.796. For “TATCACTTGTCGTAAGACATTGGAGGGTTGA [3d2210]”, the fraction ligated was 0.0593. ATCACTTGTCGTAAGCACTTTGGATGGGTTGA [2d14] showed a fraction ligated of 0.782. For TTCACTTGCGTAAACACTTTGGATGGGTTGA [3d375], the fraction ligated was 0.356. “TATCACTTGTCTAAGACACTTTGGAGGGTTA [3d1896]” gave a fraction ligated of 0.134. Work on TACCTTGTCGTAAGACACTTTGGATGGGTTA [3d545] yielded a fraction ligated of 0.548. “TATCACTTCGTAAGACACTTTGGATGGGTTA [3d1325]” was tested, and the fraction ligated was 0.706. In the case of TACACTTGTGTAAGAACTTTGGATGGGTTGA [3d622], the fraction ligated is reported as 0.00557. Sequence “TATCACTTGTCAAGACACTTTGGAGGGTTGA [3d1819]” has a fraction ligated of 0.138. “TATCACTTGCTAAGACACTTGGATGGGTTGA [3d1606]” showed a fraction ligated of 0.782. TACATTGTCGTAAGACACTTTGGTGGGTTGA [3d561] was tested, and the fraction ligated was 0.144. For “TATCACTTTGTAAGACATTTGGATGGGTTGA [3d1471]”, the fraction ligated was 0.837. For “TATCACTTGTCGAAGAACTTTGGAGGGTTGA [3d1939]”, the fraction ligated was 0.111. TACACTTGTGTAAGCACTTTGGATGGGTTGA [3d621] gave a fraction ligated of 0.101. Work on TACATTGTCGTAAACACTTTGGATGGGTTGA [3d554] yielded a fraction ligated of 0.0244. With TATCCTTTGTAAGACACTTTGGATGGGTTGA [3d968] the fraction ligated was 0.772. With “TATCACTTGTCGTAAGACATTTGGAGGGTTG [3d2226]” the fraction ligated was 0.00325. In the case of “TATCACTGCGAAGACACTTTGGATGGGTTGA [3d1329]”, the fraction ligated is reported as 0.831. For “TATCACTGTCGTAAACATTTGGATGGGTTGA [3d1400]”, the fraction ligated was 0.822. TATACTTGTCGTAAGACACTTGGATGGGTTA [3d930] gave a fraction ligated of 0.0948. “TATCACTTGTCGTAAACACTTGGAGGGTTGA [3d2084]” showed a fraction ligated of 0.0636. Work on TACACTTGTCGTAGACCTTTGGATGGGTTGA [3d663] yielded a fraction ligated of 0.173. ATCACTTGTCTAAACACTTTGGATGGGTTGA [3d173] showed a fraction ligated of 0.77. Work on TAACTTGTCGTAAGACACTTTGGATGGGTTGA [2d47] yielded a fraction ligated of 0.271. ATCACTTGTCGAAGACACTTTGGTGGGTTGA [3d193] showed a fraction ligated of 0.0564. In the case of “TATCACTGTCGTAAGACACTTGATGGGTTGA [3d1441]”, the fraction ligated is reported as 0.77. “TATCACTTGTCGTAAGACACTTTGAGGGTTG [3d2266]” was tested, and the fraction ligated was 0.00798. TTCACTTGTCGTAAAACTTTGGATGGGTTGA [3d442] was tested, and the fraction ligated was 0.623. TACACGTCGTAAGACACTTTGGATGGGTTGA [3d566] was tested, and the fraction ligated was 0.266. Work on TACACTTGTCGAAGAACTTTGGATGGGTTGA [3d649] yielded a fraction ligated of 0.195. For “TATCACTTGTTAAGAACTTTGGATGGGTTGA [3d1708]”, the fraction ligated was 0.874. Sequence “TATCACTTGTCGTAAGAACTTTGGATGGTTGA [2d259]” has a fraction ligated of 0.139. For TTCACTTGTCGTAGACACTTTGATGGGTTGA [3d436], the fraction ligated was 0.258. “TATCACTGTCGTAAACCTTTGGATGGGTTGA [3d1399]” was tested, and the fraction ligated was 0.806. For TTCACTTGTCGTAAGACACTTTGGTGGGTTGA [2d42], the fraction ligated was 0.0345. TTCACTGTGTAAGACACTTTGGATGGGTTGA [3d339] showed a fraction ligated of 0.766. In the case of “TATCCTTGTCTAAGACACTTTGATGGGTTGA [3d1023]”, the fraction ligated is reported as 0.748. “TATCACTGTCGAAGACACTTTGGATGGGTTG [3d1384]” gave a fraction ligated of 0.829. For “TATCCTTGTCGTAAACACTTTGGTGGGTTGA [3d1060]”, the fraction ligated was 0.0666. “TATCACTTGCGAAGACACTTTGGATGGTTGA [3d1623]” showed a fraction ligated of 0.248. For “TATCCTTGTCGTAAGACATTTGGATGGGTTA [3d1095]”, the fraction ligated was 0.455. “TATCCTTGTCGTAAGACACTTTGGATGGTTGA [2d106]” gave a fraction ligated of 0.0489. TATATTGTCGTAAGACACTTTGGATGGGTTG [3d776] gave a fraction ligated of 0.214. TATACTTGTCTAGACACTTTGGATGGGTTGA [3d844] gave a fraction ligated of 0.732. Work on “TATCCTTGTCGTAAGACACTTGGAGGGTTGA [3d1100]” yielded a fraction ligated of 0.00692. With TATACTGTCGTAGACACTTTGGATGGGTTGA [3d783] the fraction ligated was 0.757. “TATCACTTGTCGTAAACACTTTGATGGGTTGA [2d238]” showed a fraction ligated of 0.763. Sequence “TATCATTGTCGTAAGACATTTGATGGGTTGA [3d1263]” has a fraction ligated of 0.787. Sequence TTCATTGTCGTAAGACACTTTGATGGGTTGA [3d330] has a fraction ligated of 0.505. Work on “TATCACTTGTCGTAAGACCTTGGAGGGTTGA [3d2186]” yielded a fraction ligated of 0.0676. For “TATCACTTGTCTAAGACACTTTGGTGGGTTG [3d1894]”, the fraction ligated was 0.0778. TACCTGTCGTAAGACACTTTGGATGGGTTGA [3d528] was tested, and the fraction ligated was 0.655. For ATACTTGTCGTAAGACACTTGGATGGGTTGA [3d60], the fraction ligated was 0.473. Sequence TACACTTTCGTAAGACCTTTGGATGGGTTGA [3d592] has a fraction ligated of 0.0278. For TTATTGTCGTAAGACACTTTGGATGGGTTGA [3d278], the fraction ligated was 0.076. TATACTTGCGTAAGCACTTTGGATGGGTTGA [3d817] gave a fraction ligated of 0.739. With TATCTTGTCGTAAGACACTTTGGAGGGTTGA [3d754] the fraction ligated was 0.0612. With TATACTTGTGTAAGACACTTTGGAGGGTTGA [3d839] the fraction ligated was 0.0723. With “TATCACTTGTCGTAAAACTTTGGATGGGTTGA [2d234]” the fraction ligated was 0.818. Sequence “TATCACTTGTCTAACACTTTGGATGGGTTGA [3d1824]” has a fraction ligated of 0.8. Work on “TATCACTTGTCGTAAGAACTTTGATGGGTTA [3d2170]” yielded a fraction ligated of 0.09. “TATCACTTGTCGTAAGACCTTGGTGGGTTGA [3d2185]” showed a fraction ligated of 0.0725. “TATCACTTGTCGTAAGACATGGATGGGTTGA [3d2207]” was tested, and the fraction ligated was 0.808. Sequence TACACTTGTCGTAGACACTTTGGTGGGTTGA [3d667] has a fraction ligated of 0.0835. For “TATCACTTGTCGTGACATTTGGATGGGTTGA [3d1985]”, the fraction ligated was 0.809. For ATCACTGTCGTAAGACACTTTGGTGGGTTGA [3d119], the fraction ligated was 0.108. Work on “TATCATTGCGTAAGACACTTTGGTGGGTTGA [3d1167]” yielded a fraction ligated of 0.0667. With TACACTTGTCGTAGACATTTGGATGGGTTGA [3d664] the fraction ligated was 0.464. Work on TTCACTTGCGTAAGACACTTTGGAGGGTTGA [3d383] yielded a fraction ligated of 0.0421. Sequence “TATCATTGTCGTAAGACACTTTGGAGGGTTA [3d1287]” has a fraction ligated of 0.0162. In the case of “TATCACTTGTCGTAAGAACTTTGATGGGTTGA [2d256]”, the fraction ligated is reported as 0.79. “TATCACTGTCGTAGACATTTGGATGGGTTGA [3d1390]” gave a fraction ligated of 0.864. TACACTTGTCTAAGACACTTTGGAGGGTTGA [3d642] was tested, and the fraction ligated was 0.115. TTCACTTGTCGTAAGACACTTGATGGGTTGA [3d485] was tested, and the fraction ligated was 0.0622. For TACACTTGTCGTAAGACACTTTGGTGGGTTA [3d729], the fraction ligated was 0.00637. “TATCCTTGTCGTAAGAACTTTGATGGGTTGA [3d1077]” was tested, and the fraction ligated was 0.8. Work on ACACTTGTCGTAAGACACTTTGGATGGGTTGA [2d2] yielded a fraction ligated of 0.725. “TATCATTGTCGAAGCACTTTGGATGGGTTGA [3d1203]” showed a fraction ligated of 0.784. Sequence “TATCACTTGTCGTAAACACTTGGATGGTTGA [3d2085]” has a fraction ligated of 0.105. Sequence TACACTTGTCGTAAACATTTGGATGGGTTGA [3d674] has a fraction ligated of 0.457. In the case of TTCACTGTCGTAAGACACTTTGGATGGGTTG [3d354], the fraction ligated is reported as 0.726. In the case of “TATCACTTTCGTAAGACACTTTGGATGGTTA [3d1581]”, the fraction ligated is reported as 0.0764. With TACCTTGTCGTAAGACCTTTGGATGGGTTGA [3d538] the fraction ligated was 0.734. Work on TATACTTGTCGTAAGACACTTTGGAGGGTTG [3d944] yielded a fraction ligated of 0.00819. In the case of TATCCTTGCGTAAGACACTTGGATGGGTTGA [3d993], the fraction ligated is reported as 0.75. In the case of “TATCACTTGTCGTAAGACATTGGTGGGTTGA [3d2209]”, the fraction ligated is reported as 0.0429. TTCACTGTCGAAGACACTTTGGATGGGTTGA [3d341] showed a fraction ligated of 0.77. With TTACTGTCGTAAGACACTTTGGATGGGTTGA [3d279] the fraction ligated was 0.226. ATCACTTGTCGAAGACACTTGGATGGGTTGA [3d191] gave a fraction ligated of 0.728. “TATCACTTGTGAAGCACTTTGGATGGGTTGA [3d1720]” was tested, and the fraction ligated was 0.845. With “TATCACTGTCGTAAGAACTTTGGATGGTTGA [3d1423]” the fraction ligated was 0.26. “TATCACTTGGTAAGACACTTTGGATGGGTTGA [2d163]” was tested, and the fraction ligated was 0.813. Work on “TATCACTGTCGTAAGACATTGGATGGGTTGA [3d1433]” yielded a fraction ligated of 0.818. With “TATCACTTGTCGTAAGACACTGGATGGGTTGA [2d276]” the fraction ligated was 0.776. Work on “TATCACTTGTCGTAAGCACTTTGGATGGGTTA [2d252]” yielded a fraction ligated of 0.737. Sequence “TATCATTGCGTAAGACACTTTGGATGGGTTGA [2d111]” has a fraction ligated of 0.819.
